Read-outs that look alike come from different tables or passages of the source. Values belong to the binder of their own block, whether it stands above or below them. Where no end group is shown, it is not given here. The star is where a group is joined. Dansyl = CN(C)c1cccc2c(S(=O)(=O)*)cccc12; MBP = maltose binding protein fusion
Experiments:
[1] = target: T1, recombinant 6xHis-tagged calmodulin (UniProt P0DP23 1-149); assay: other fluorescence titration
Dansyl-labeled CaM = Dansyl-labeled CaM (UniProt P0DP23 1-149, Dansyl label (site not stated)); assay: other fluorescence titration
[2] = target: T1, recombinant 6xHis-tagged calmodulin; assay: ITC
[3] = target: T1, recombinant 6xHis-tagged calmodulin; assay: other fluorescence titration; remark: listed apart in the source
[4] = target: T1, recombinant 6xHis-tagged calmodulin; assay: ITC; remark: listed apart in the source
[5] = target: T1, recombinant 6xHis-tagged calmodulin; assay: ITC; remark: listed apart in the source
[6] = target: T1, recombinant 6xHis-tagged calmodulin; assay: fluorescence polarisation
[7] = target: T1, recombinant 6xHis-tagged calmodulin; assay: ITC; remark: listed apart in the source
[8] = target: C-terminal half domain of CaM (residues 76-149) fused to blue fluorescent protein (UniProt P0DP23 76-149); assay: ITC
[9] = target: N-terminal half domain of CaM (residues 1-75) fused to cyan fluorescent protein (UniProt P0DP23 1-75); assay: ITC
[10] = target: T1, recombinant 6xHis-tagged calmodulin; assay: ITC; remark: listed apart in the source
SEC [11] = target: the molecule itself; assay: SEC
SEC [12] = target: the molecule itself; assay: SEC; remark: listed apart in the source

B2: MBP-fused human Nox5β dehydrogenase domain residues 528-719 (domain or fragment)
chain: PTRRIFASEHAVLIGAGIGITPFASILQSIMYRHQKRKHTCPSCQHSWIEGVQDNMKLHKVDFIWINRDQRSFEWFVSLLTKLEMDQAEEAQYGRFLELHMYMTSALGKNDMKAIGLQMALDLLANKEKKDSITGLQTRTQPGRPDWSKVFQKVAAEKKGKVQVFFCGSPALAKVLKGHCEKFGFRFFQENF
Ka (Dansyl-labeled CaM): 1.39e+06 M⁻¹
stoichiometry N (Dansyl-labeled CaM): 0.92 [Peptide]/[Protein]
Ka [2]: 2.71e+06 M⁻¹

B3: MBP-fused human Nox5β dehydrogenase domain residues 665-719 (domain or fragment)
chain: {MBP}-TRTQPGRPDWSKVFQKVAAEKKGKVQVFFCGSPALAKVLKGHCEKFGFRFFQENF
modifications: cysteine pairing not given here
Ka (Dansyl-labeled CaM): 4.9e+06 M⁻¹
stoichiometry N (Dansyl-labeled CaM): 0.92 [Peptide]/[Protein]
Ka [2]: 1.39e+06 M⁻¹

B4: human Nox5β CaM-binding domain (CMBD) peptide, residues 671-689 (peptide)
peptide: RPDWSKVFQKVAAEKKGKV
Ka [3]: 1.71e+07 M⁻¹
dH (per mole CMBD) [4]: -3.81 kcal/mol
stoichiometry N [4]: 1.83
Ka [5]: 1.02e+06 M⁻¹
Ka [6]: 8.64e+06 M⁻¹
Ka [7]: 878000 M⁻¹
dH (per mole protein) [7]: -6.94 kcal/mol
stoichiometry N [7]: 1.82 [peptide]/Protein]
Ka [8]: 950000 M⁻¹
dH (per mole protein) [8]: -4.02 kcal/mol
stoichiometry N [8]: 1.04 [peptide]/Protein]
Ka [9]: 2.42e+06 M⁻¹
dH (per mole protein) [9]: -3.94 kcal/mol
stoichiometry N [9]: 0.89 [peptide]/Protein]

B6: MBP-fused human Nox5β dehydrogenase domain residues 584-719 (domain or fragment, UniProt Q96PH1-4 584-719, looked up)
chain: KLHKVDFIWINRDQRSFEWFVSLLTKLEMDQAEEAQYGRFLELHMYMTSALGKNDMKAIGLQMALDLLANKEKKDSITGLQTRTQPGRPDWSKVFQKVAAEKKGKVQVFFCGSPALAKVLKGHCEKFGFRFFQENF
stoichiometry N (SEC [11]): ~4
Ka (Dansyl-labeled CaM): 1.82e+06 M⁻¹
stoichiometry N (Dansyl-labeled CaM): 0.89 [Peptide]/[Protein]
stoichiometry N (SEC [12]): ~3
Ka [2]: 933000 M⁻¹

Second part, the binder after the results:

Ka [1]: 4.95e+06 M⁻¹
B1: N-terminal Dansyl-labeled human Nox5β CMBD peptide (peptide)
peptide: Dansyl-RPDWSKVFQKVAAEKKGKV

Ka (Dansyl-labeled CaM): 2.52e+06 M⁻¹
stoichiometry N (Dansyl-labeled CaM): 1.02 [Peptide]/[Protein]
Ka [2]: 894000 M⁻¹
Ka [10]: ~1e+06 M⁻¹
B5: MBP-fused human Nox5β dehydrogenase domain residues 605-719 (domain or fragment)
chain: SLLTKLEMDQAEEAQYGRFLELHMYMTSALGKNDMKAIGLQMALDLLANKEKKDSITGLQTRTQPGRPDWSKVFQKVAAEKKGKVQVFFCGSPALAKVLKGHCEKFGFRFFQENF

From paper PMC8777244 (Biochemistry and Biophysics Reports, 2022)
